In assay [1] the test system is monocyte-derived DC (moDC). Put plainly: Activation of monocyte-derived dendritic cells in presence of ATP. In kind it is cell-based, human. As to conditions: ATP at 0.125 mM, 0.25 mM or 0.5 mM, 24 hours; I-394 shown at 10 μg/ml. The procedure:
While ATP has pro-inflammatory activity, CD39-mediated catabolism of ATP is believed to be able to impair dendritic cell (DC) activation, in turn altering a broader adaptive immune response against tumor antigen. In order to evaluate whether CD39 blockade using anti-CD39 antibodies could overcome CD39-mediated alteration of dendritic cell (DC) activation in the presence of ATP, we incubated monocyte-derived DC (moDC) with anti-CD39 antibodies in the presence of ATP.
Briefly, human monocytes were purified from human healthy blood and differentiated into MoDC in presence of GM-CSF and IL-4 during 6 days. […] LPS (Invivogen, 10 ng/ml) was used as positive control. To assess resulting effect of ATP-mediated DC activation on CD4 T cells activation, ATP-activated DC were washed and then incubated with allogenic CD4 T cells (ratio 1 MoDC/4 T cells) for a mixed lymphocytes reaction (MLR) during 5 days. T cells activation and proliferation were analyzed through CD25 expression and Cell Trace Violet dilution by flow cytometry (FIG. 8).

The target of assay [2] is T1, Human CD39-L4, also known as NTPDase5 or ENTPD5 (Homo sapiens, UniProt O75356).
T1 sequence (O75356 25-428): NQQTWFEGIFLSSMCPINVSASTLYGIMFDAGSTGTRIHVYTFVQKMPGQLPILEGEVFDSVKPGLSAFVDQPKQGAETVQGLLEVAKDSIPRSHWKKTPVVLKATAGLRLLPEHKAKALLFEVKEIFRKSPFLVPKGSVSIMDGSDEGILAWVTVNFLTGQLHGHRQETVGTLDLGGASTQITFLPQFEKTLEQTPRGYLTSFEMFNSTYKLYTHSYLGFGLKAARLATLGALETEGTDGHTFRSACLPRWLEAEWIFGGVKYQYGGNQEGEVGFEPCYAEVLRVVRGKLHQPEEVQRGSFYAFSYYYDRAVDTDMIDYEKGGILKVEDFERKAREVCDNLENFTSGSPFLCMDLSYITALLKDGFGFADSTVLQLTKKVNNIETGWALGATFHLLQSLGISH
Put plainly: ELISA titration on CD39-L4. In kind it is binding. The conditions noted are these: coated recombinant protein, OD=450. As to the method:
(§1) Wells were washed in TBS Tween 20, and further saturated 2H at RT in TBS Blocking buffer. Dose range concentration of primary antibody was incubated in TBS blocking buffer for 2 h at RT. Wells were washed in TBS Tween 20. […] Optical density was measured on Enspire™ at OD=450.

The target in assay [3] is T2, Human CD39-L1, also known as NTPDase2 or ENTPD2 (Homo sapiens, UniProt Q9Y5L3).
T2 sequence (Q9Y5L3 1-472 isoform Q9Y5L3-2): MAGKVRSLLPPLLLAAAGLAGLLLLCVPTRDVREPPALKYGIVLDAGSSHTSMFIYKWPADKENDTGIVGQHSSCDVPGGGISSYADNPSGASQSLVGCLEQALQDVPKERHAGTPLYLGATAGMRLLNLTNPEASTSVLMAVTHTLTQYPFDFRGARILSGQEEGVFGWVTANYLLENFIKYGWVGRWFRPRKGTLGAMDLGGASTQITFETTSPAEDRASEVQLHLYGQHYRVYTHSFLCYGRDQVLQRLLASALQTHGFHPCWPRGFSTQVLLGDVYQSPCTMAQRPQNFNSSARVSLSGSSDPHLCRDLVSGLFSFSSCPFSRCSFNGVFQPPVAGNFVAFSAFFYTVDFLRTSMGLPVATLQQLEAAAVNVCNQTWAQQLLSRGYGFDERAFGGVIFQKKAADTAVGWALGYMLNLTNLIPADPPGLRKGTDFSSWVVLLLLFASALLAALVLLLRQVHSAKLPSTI
Put plainly: ELISA titration on CD39-L1. In kind it is binding. The conditions noted are these: coated recombinant protein, OD=450. The procedure: as §1

The test system of a further assay is allogenic CD4 T cells. As to the kind of experiment: Mixed lymphocytes reaction (MLR) of ATP-activated DC with allogenic CD4 T cells. Type of assay: cell-based, human. The conditions noted are these: ATP-activated MoDC, 1 MoDC/4 T cells, 5 days. As to the method: T cells activation and proliferation were analyzed through CD25 expression and Cell Trace Violet dilution by flow cytometry.
Briefly, human monocytes were purified from human healthy blood and differentiated into MoDC in presence of GM-CSF and IL-4 during 6 days. Then MoDC were activated in presence of ATP (Sigma, 0.25-1 mM) during 24 hours and DC activation were assessed by analyzing CD80, CD83 and HLA-DR expression by flow cytometry. […] LPS (Invivogen, 10 ng/ml) was used as positive control. To assess resulting effect of ATP-mediated DC activation on CD4 T cells activation, ATP-activated DC were washed and then incubated with allogenic CD4 T cells (ratio 1 MoDC/4 T cells) for a mixed lymphocytes reaction (MLR) during 5 days. T cells activation and proliferation were analyzed through CD25 expression and Cell Trace Violet dilution by flow cytometry (FIG. 8).

Assay [4] deals with T3, human Ramos lymphoma cells (Homo sapiens, UniProt P49961).
T3 construct: host or cells: Ramos human lymphoma cells
T3 sequence (P49961 1-510): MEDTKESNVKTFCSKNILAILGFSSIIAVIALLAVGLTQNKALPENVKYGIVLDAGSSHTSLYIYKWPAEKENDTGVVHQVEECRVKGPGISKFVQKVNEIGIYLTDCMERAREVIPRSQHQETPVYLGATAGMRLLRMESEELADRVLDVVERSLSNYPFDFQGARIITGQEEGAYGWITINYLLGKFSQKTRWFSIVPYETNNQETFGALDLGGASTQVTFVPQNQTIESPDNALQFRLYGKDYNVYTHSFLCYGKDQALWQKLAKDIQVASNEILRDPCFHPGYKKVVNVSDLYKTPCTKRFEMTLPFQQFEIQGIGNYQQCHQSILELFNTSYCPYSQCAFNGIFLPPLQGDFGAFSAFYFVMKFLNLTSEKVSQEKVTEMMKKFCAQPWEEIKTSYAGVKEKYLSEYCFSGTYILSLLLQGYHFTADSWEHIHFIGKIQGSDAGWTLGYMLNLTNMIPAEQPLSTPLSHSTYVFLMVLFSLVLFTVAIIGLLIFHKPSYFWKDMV
As to the kind of experiment: Antibody titration by flow cytometry on Ramos cells. In kind it is binding. As to the method:
Cells were incubated with various concentration of unlabeled anti-CD39 antibody from 30 μg/ml to 5×10^−4 μg/ml, for 30 minutes at 4° C. After washes, cells were incubated with Goat anti-mouse H+L labeled secondary antibody for 30 min at 4° C.

Entries after “also recorded” stand apart in the source; their conditions may differ.

B1: I-394: anti-CD39 antibody, VH SEQ ID NO: 3, VL SEQ ID NO: 4; heavy and light chains SEQ ID NOS: 37 and 38 (antibody)
heavy: EVQLQQSGPELVKPGASVKMSCKASGYTFTDYNMHWVKQSHGRTLEWIGYIVPLNGGSTFNQKFKGRATLTVNTSSRTAYMELRSLTSEDSAAYYCARGGTRFAYWGQGTLVTVSAASTKGPSVFPLAPSSKSTSGGTAALGCLVKDYFPEPVTVSWNSGALTSGVHTFPAVLQSSGLYSLSSVVTVPSSSLGTQTYICNVNHKPSNTKVDKRVEPKSCDKTHTCPPCPAPEAEGAPSVFLFPPKPKDTLMISRTPEVTCVVVDVSHEDPEVKFNWYVDGVEVHNAKTKPREEQYNSTYRVVSVLTVLHQDWLNGKEYKCKVSNKALPSSIEKTISKAKGQPREPQVYTLPPSREEMTKNQVSLTCLVKGFYPSDIAVEWESNGQPENNYKTTPPVLDSDGSFFLYSKLTVDKSRWQQGNVFSCSVMHEALHNHYTQKSLSLSPGK
light: DIVLTQSPASLAVSLGQRATISCRASESVDNFGVSFMYWFQQKPGQPPNLLIYGASNQGSGVPARFRGSGSGTDFSLNIHPMEADDTAMYFCQQTKEVPYTFGGGTKLEIKRTVAAPSVFIFPPSDEQLKSGTASVVCLLNNFYPREAKVQWKVDNALQSGNSQESVTEQDSKDSTYSLSSTLTLSKADYEKHKVYACEVTHQGLSSPVTKSFNRGEC
modifications: Chimeric homo sapiens mus musculus
On to B1, for which, in assay [1], the “moDC activation as assessed by HLA-DR or CD83 expression” value is given as “permitted moDC activation; also recorded: lead to moDC activation”. Further, the “binding to CD39-L4 in ELISA” value in assay [2] was “not to any of the human isoforms”. Further, in assay [3], the “binding to CD39-L1 in ELISA” value is “not to any of the human isoforms”. Also, the “T cell proliferation and activation (CD25 expression, Cell Trace Violet dilution) in MLR” value in the assay with allogenic CD4 T cells is “higher T cell proliferation and activation”. Also, the “binding to Ramos lymphoma cells” value in assay [4] is “bound; also recorded: binds”.

The values above are taken from patent US20190218304A1, “POTENTIATING THE EFFECT OF ATP RELEASE” (INNATE PHARMA, priority 2017, published 2019).
